In US20040014134:

Biological target: Fusion protein B (variant 2; rsGFP - cleavage site segment with TEV protease cleavage site - DsRed)

B1: TEV protease (protease from the tobacco etch virus) (protein)
chain: GESLFKGPRDYNPISSTICHLTNESDGHTTSLYGIGFGPFIITNKHLFRRNNGTLLVQSLHGVFKVKNTTTLQQHLIDGRDMIIIRMPKDFPPFPQKLKFREPQREERICLVTTNFQTKSMSSMVSDTSCTFPSSDGIFWKHWIQTKDGQCGSPLVSTRDGFIVGIHSASNFTNTNNYFTSVPKNFMELLTNQEAQQWVSGWRLNADSVLWGGHKVFMSKPEEPFQPVKEATQLMNELVYSQ
  two-photon cross-correlation amplitude (dual-colour FCS protease cleavage assay): The cleavage of the bond and the consequent reduction of the proportion of double fluorescing molecules in the measurement solution cause the decrease of the cross-correlation amplitude.
